Experimental findings from patent US20220062341A1 (KIRIN, published 2022) are described below.

Some results are limits rather than exact numbers.

This test concerns the target CD3 subunits (CD3E, CD3G, CD3D, CD3Z) (human, UniProt P07766 23-207; P09693 23-182; P04234 22-171; P20963 22-164). Kind of test: cell-based or functional assay.

Sequence of CD3 subunits (CD3E, CD3G, CD3D, CD3Z) (P07766 23-207, chain 1 of 4): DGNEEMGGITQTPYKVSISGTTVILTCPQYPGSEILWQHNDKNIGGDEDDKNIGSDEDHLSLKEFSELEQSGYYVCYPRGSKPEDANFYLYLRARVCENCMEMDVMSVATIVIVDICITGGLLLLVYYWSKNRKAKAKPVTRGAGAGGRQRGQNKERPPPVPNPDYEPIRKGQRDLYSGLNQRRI
Sequence of CD3 subunits (CD3E, CD3G, CD3D, CD3Z) (P09693 23-182, chain 2 of 4): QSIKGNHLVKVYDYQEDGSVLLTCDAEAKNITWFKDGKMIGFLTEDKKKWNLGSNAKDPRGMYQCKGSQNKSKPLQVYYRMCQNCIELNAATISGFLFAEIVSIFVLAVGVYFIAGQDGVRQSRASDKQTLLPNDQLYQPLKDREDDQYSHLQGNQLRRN
Sequence of CD3 subunits (CD3E, CD3G, CD3D, CD3Z) (P04234 22-171, chain 3 of 4): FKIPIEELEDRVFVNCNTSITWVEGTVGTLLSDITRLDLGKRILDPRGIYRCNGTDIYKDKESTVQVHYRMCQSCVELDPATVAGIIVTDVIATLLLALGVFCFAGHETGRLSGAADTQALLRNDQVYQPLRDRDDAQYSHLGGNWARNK
Sequence of CD3 subunits (CD3E, CD3G, CD3D, CD3Z) (P20963 22-164, chain 4 of 4): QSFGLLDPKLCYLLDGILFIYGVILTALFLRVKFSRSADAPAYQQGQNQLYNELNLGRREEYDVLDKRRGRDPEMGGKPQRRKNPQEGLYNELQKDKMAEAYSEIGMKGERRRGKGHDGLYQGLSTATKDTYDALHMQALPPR

B1: modified TCR consisting of β7 and α9 (TCR)
TCR alpha: FNNSIIPEDTFFPSPESSCDVKLVEKSFETDTNLNFQNLSVIGFRILLLKVAGFNLLMTLRLWSS
TCR beta: RLRVSATFWQNPRNHFRCQVQFYGLSENDEWTQDRAKPVTQIVSAEAWGRADCGFTSESYQQGVLSATILYEILLGKATLYAVLVSALVLMAMVKRKDSRG
Regarding B1, the “CD3-recruiting activity (CD3-positive proportion, N=3), CD3-stably expressing 293T cells” value (“CD3-recruiting activity” for short) is at least 20%.

B2: modified TCR consisting of β9 and α9 (TCR)
TCR alpha: B1 TCR alpha
TCR beta: FRCQVQFYGLSENDEWTQDRAKPVTQIVSAEAWGRADCGFTSESYQQGVLSATILYEILLGKATLYAVLVSALVLMAMVKRKDSRG
As for B2, the “CD3-recruiting activity” value is at least 20%.

B3: modified TCR consisting of β10 and α9 (TCR)
TCR alpha: B1 TCR alpha
TCR beta: YGLSENDEWTQDRAKPVTQIVSAEAWGRADCGFTSESYQQGVLSATILYEILLGKATLYAVLVSALVLMAMVKRKDSRG
Regarding B3, the “CD3-recruiting activity” value is at least 20%.

B4: modified TCR consisting of β7 and α10 (TCR)
TCR alpha: IPEDTFFPSPESSCDVKLVEKSFETDTNLNFQNLSVIGFRILLLKVAGFNLLMTLRLWSS
TCR beta: B1 TCR beta
Consider B4, for which the “CD3-recruiting activity” value was at least 20%.

B5: modified TCR consisting of β9 and α8 (TCR)
TCR alpha: CANAFNNSIIPEDTFFPSPESSCDVKLVEKSFETDTNLNFQNLSVIGFRILLLKVAGFNLLMTLRLWSS
TCR beta: B2 TCR beta
Consider B5, for which the “CD3-recruiting activity” value is at least 20%.

B6: modified TCR consisting of β10 and α8 (TCR)
TCR alpha: B5 TCR alpha
TCR beta: B3 TCR beta
B6: the “CD3-recruiting activity” value was at least 20%.

B7: modified TCR consisting of β9 and α10 (TCR)
TCR alpha: B4 TCR alpha
TCR beta: B2 TCR beta
Turning to B7, the “CD3-recruiting activity” value was at least 20%.

B8: modified TCR consisting of β11 and α4 (TCR)
TCR alpha: DVYITDKTVLDMRSMDFKSNSAVAWSNKSDFACANAFNNSIIPEDTFFPSPESSCDVKLVEKSFETDTNLNFQNLSVIGFRILLLKVAGFNLLMTLRLWSS
TCR beta: EWTQDRAKPVTQIVSAEAWGRADCGFTSESYQQGVLSATILYEILLGKATLYAVLVSALVLMAMVKRKDSRG
As for B8, the “CD3-recruiting activity” value is at least 20%.

B9: modified TCR consisting of β11 and α6 (TCR)
TCR alpha: KSNSAVAWSNKSDFACANAFNNSIIPEDTFFPSPESSCDVKLVEKSFETDTNLNFQNLSVIGFRILLLKVAGFNLLMTLRLWSS
TCR beta: B8 TCR beta
Turning to B9, the “CD3-recruiting activity” value was at least 20%.

B10: modified TCR consisting of β11 and α5 (TCR)
TCR alpha: LDMRSMDFKSNSAVAWSNKSDFACANAFNNSIIPEDTFFPSPESSCDVKLVEKSFETDTNLNFQNLSVIGFRILLLKVAGFNLLMTLRLWSS
TCR beta: B8 TCR beta
Regarding B10, the “CD3-recruiting activity” value is at least 20%.

B11: modified TCR consisting of β1 and α1 (TCR)
TCR alpha: YQLRDSKSSDKSVCLFTDFDSQTNVSQSKDSDVYITDKTVLDMRSMDFKSNSAVAWSNKSDFACANAFNNSIIPEDTFFPSPESSCDVKLVEKSFETDTNLNFQNLSVIGFRILLLKVAGFNLLMTLRLWSS
TCR beta: SEAEISHTQKATLVCLATGFYPDHVELSWWVNGKEVHSGVSTDPQPLKEQPALNDSRYCLSSRLRVSATFWQNPRNHFRCQVQFYGLSENDEWTQDRAKPVTQIVSAEAWGRADCGFTSESYQQGVLSATILYEILLGKATLYAVLVSALVLMAMVKRKDSRG
As to B11, the “CD3-recruiting activity” value is at least 20%.

B12: modified TCR consisting of β2 and α1 (TCR)
TCR alpha: B11 TCR alpha
TCR beta: ATLVCLATGFYPDHVELSWWVNGKEVHSGVSTDPQPLKEQPALNDSRYCLSSRLRVSATFWQNPRNHFRCQVQFYGLSENDEWTQDRAKPVTQIVSAEAWGRADCGFTSESYQQGVLSATILYEILLGKATLYAVLVSALVLMAMVKRKDSRG
In the case of B12, the “CD3-recruiting activity” value is at least 20%.

B13: modified TCR consisting of β10 and α3 (TCR)
TCR alpha: NVSQSKDSDVYITDKTVLDMRSMDFKSNSAVAWSNKSDFACANAFNNSIIPEDTFFPSPESSCDVKLVEKSFETDTNLNFQNLSVIGFRILLLKVAGFNLLMTLRLWSS
TCR beta: B3 TCR beta
Consider B13, for which the “CD3-recruiting activity” value was at least 20%.

B14: modified TCR consisting of β10 and α4 (TCR)
TCR alpha: B8 TCR alpha
TCR beta: B3 TCR beta
As to B14, the “CD3-recruiting activity” value is at least 20%.

B15: modified TCR consisting of β11 and α3 (TCR)
TCR alpha: B13 TCR alpha
TCR beta: B8 TCR beta
In the case of B15, the “CD3-recruiting activity” value was at least 20%.

B16: modified TCR consisting of β10 and α7 (TCR)
TCR alpha: SNKSDFACANAFNNSIIPEDTFFPSPESSCDVKLVEKSFETDTNLNFQNLSVIGFRILLLKVAGFNLLMTLRLWSS
TCR beta: B3 TCR beta
Consider B16, for which the “CD3-recruiting activity” value is at least 20%.

B17: modified TCR consisting of β10 and α5 (TCR)
TCR alpha: B10 TCR alpha
TCR beta: B3 TCR beta
Take B17: the “CD3-recruiting activity” value is at least 20%.

B18: modified TCR consisting of β10 and α10 (TCR)
TCR alpha: B4 TCR alpha
TCR beta: B3 TCR beta
Consider B18, for which the “CD3-recruiting activity” value is at least 20%.

B19: modified TCR consisting of β10 and α6 (TCR)
TCR alpha: B9 TCR alpha
TCR beta: B3 TCR beta
On to B19, for which the “CD3-recruiting activity” value was at least 20%.

B20: modified TCR consisting of β2 and αCR (TCR)
TCR alpha: NIQNPDPAVYQLRDSKSSDKSVCLFTDFDSQTNVSQSKDSDVYITDKTVLDMRSMDFKSNSAVAWSNKSDFACANAFNNSIIPEDTFFPSPESSCDVKLVEKSFETDTNLNFQNLSVIGFRILLLKVAGFNLLMTLRLWSS
TCR beta: B12 TCR beta
Regarding B20, the “CD3-recruiting activity” value was at least 20%.

B21: modified TCR consisting of β2 and α8 (TCR)
TCR alpha: B5 TCR alpha
TCR beta: B12 TCR beta
In the case of B21, the “CD3-recruiting activity” value was at least 20%.

B22: modified TCR consisting of β2 and α9 (TCR)
TCR alpha: B1 TCR alpha
TCR beta: B12 TCR beta
For B22, the “CD3-recruiting activity” value was at least 20%.

B23: modified TCR consisting of β2 and α7 (TCR)
TCR alpha: B16 TCR alpha
TCR beta: B12 TCR beta
For the molecule B23, the “CD3-recruiting activity” value is at least 20%.

B24: modified TCR consisting of β2 and α10 (TCR)
TCR alpha: B4 TCR alpha
TCR beta: B12 TCR beta
Take B24: the “CD3-recruiting activity” value is at least 20%.

B25: modified TCR consisting of β2 and α6 (TCR)
TCR alpha: B9 TCR alpha
TCR beta: B12 TCR beta
For B25, the “CD3-recruiting activity” value was at least 20%.

B26: modified TCR consisting of β2 and α5 (TCR)
TCR alpha: B10 TCR alpha
TCR beta: B12 TCR beta
In the case of B26, the “CD3-recruiting activity” value was at least 20%.

B27: modified TCR consisting of β2 and α4 (TCR)
TCR alpha: B8 TCR alpha
TCR beta: B12 TCR beta
Turning to B27, the “CD3-recruiting activity” value is at least 20%.

B28: modified TCR consisting of β2 and α2 (TCR)
TCR alpha: SVCLFTDFDSQTNVSQSKDSDVYITDKTVLDMRSMDFKSNSAVAWSNKSDFACANAFNNSIIPEDTFFPSPESSCDVKLVEKSFETDTNLNFQNLSVIGFRILLLKVAGFNLLMTLRLWSS
TCR beta: B12 TCR beta
Take B28: the “CD3-recruiting activity” value was at least 20%.
